Holding throughout (experiment): EMSA
In general terms: Mobility shift assays separate free from complexed probe on a gel.

Data set [1] addresses T1, His6-MmfR (Streptomyces coelicolor A3(2)) (UniProt Q7APH7).
T1 sequence: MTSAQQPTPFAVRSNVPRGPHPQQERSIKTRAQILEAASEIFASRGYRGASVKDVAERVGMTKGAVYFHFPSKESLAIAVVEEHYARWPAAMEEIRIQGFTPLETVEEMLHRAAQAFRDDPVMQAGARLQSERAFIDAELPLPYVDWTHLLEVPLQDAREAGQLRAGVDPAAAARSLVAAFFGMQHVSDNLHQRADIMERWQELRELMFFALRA

For data set [2], the target named is T2, MmfR Q130E Q130E (Streptomyces coelicolor A3(2)) (UniProt Q7APH7).
T2 sequence: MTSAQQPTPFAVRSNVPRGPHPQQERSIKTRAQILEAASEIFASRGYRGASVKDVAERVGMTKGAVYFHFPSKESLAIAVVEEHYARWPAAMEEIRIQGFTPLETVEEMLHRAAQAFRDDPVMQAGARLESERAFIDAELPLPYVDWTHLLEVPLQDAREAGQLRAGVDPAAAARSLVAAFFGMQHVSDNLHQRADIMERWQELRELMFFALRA

Data set [3] concerns the target T3, MmfR Y85F Y85F (Streptomyces coelicolor A3(2)) (UniProt Q7APH7).
T3 sequence: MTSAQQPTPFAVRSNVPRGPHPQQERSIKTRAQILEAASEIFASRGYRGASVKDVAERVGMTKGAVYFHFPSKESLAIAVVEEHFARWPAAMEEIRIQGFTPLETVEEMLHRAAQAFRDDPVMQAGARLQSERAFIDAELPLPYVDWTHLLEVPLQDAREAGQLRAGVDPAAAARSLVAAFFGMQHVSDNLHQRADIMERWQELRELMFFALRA

In data set [4] the target is T4, MmfR Y144F Y144F (Streptomyces coelicolor A3(2)) (UniProt Q7APH7).
T4 sequence: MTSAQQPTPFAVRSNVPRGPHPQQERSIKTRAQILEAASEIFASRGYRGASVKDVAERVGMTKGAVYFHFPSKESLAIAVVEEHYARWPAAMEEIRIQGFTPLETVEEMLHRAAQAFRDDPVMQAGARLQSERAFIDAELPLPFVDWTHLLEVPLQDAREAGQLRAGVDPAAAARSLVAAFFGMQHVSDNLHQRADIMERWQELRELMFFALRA

The target in the next data set is T5, His6-MmfR (Streptomyces coelicolor A3(2), UniProt Q7APH7 1-214).
T5 sequence: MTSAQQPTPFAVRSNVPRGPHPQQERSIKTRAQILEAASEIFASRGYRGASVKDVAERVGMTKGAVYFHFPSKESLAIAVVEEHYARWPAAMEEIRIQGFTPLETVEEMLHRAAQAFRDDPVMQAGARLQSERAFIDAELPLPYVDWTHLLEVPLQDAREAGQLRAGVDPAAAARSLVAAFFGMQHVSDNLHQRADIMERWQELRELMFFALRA

In the case of “GGACCACCGGCTGGCTTGCCGCGCTGCAAGACAGCCGGGATCGGTAAGCTGACCGAGAGAAATATACCTGCGGGAAGGTATTATGCAATGGGTTTCCGTG (double strand) [mmfL-mmfR internal fragment, 100 bp]”, the binding result in data set [1] was “binds”.

With “GGCGCCTCACAGTGTCAAACCTTCCCGAAGGTTTTTTATGACTCGTAACGGAGAGTTAAACCGGGGCTTACGAGAGCGGCGGGGCCTCGGTGTTTGGACCGCAACTCGGCGGGGCCCTGGTGCTGAGAACACCACGTCTGAGGCCCCTAGCAGAAGTTCGCTCTGGCAGCCTTCGCACGACCCTGCCGATACTCGCCAGCGATCCGAACCACTCGCCGAAGGAGTTCACC (double strand) [mmyB-mmyY intergenic region, 230 bp]”, the binding result in data set [1] is given as “binds”.

Consider “GGCGCCTCACAGTGTCAAACCTTCCCGAAGGTTTTTTATGACTCGTAACGGAGAGTTAAACCGGGGCTTACGAGAGCGGCGGGGCCTCGGTGTTTGGA (double strand) [mmyB-mmyY internal fragment, 98 bp]”, for which the binding entry in data set [1] is on record as “binds”.

In the case of “GGCTGCCTTCCTTCGTGTGTGCGGGCCCTGCGGGCGCCATGCTGGTGCGACCCGGGTCGGCACGGAAACCCATTGCATAATACCTTCCCGCAGGTATATTTCTCTCGGTCAGCTTACCGATCCCGGCTGTCTTGCAGCGCGGCAAGCCAGCCGGTGGTCCCGTACGAGGACACACCGGGAGATGTAGCGCCCCT (double strand) [mmfL-mmfR intergenic region, 194 bp]”, the binding entry in data set [2], in data set [3], in data set [4] and in data set [1] was “binds” each time.

B1: MARE1 hairpin (structured_DNA)
DNA: GCAATATACCTGCGGGAAGGTATTATGCGAGGCATAATACCTTCCCGCAGGTATATTGC
Consider B1, for which the binding result in the data set with His6-MmfR is “binds”.

B2: MARE2 hairpin (structured_DNA)
DNA: GCAAAAAACCTTCGGGAAGGTTTGACGCGAGGCGTCAAACCTTCCCGAAGGTTTTTTGC
As for B2, the binding result in the data set with His6-MmfR is “binds”.

These data come from publication doi:10.1101/2020.05.02.073981.
